For 1 substance, Km results are on record in article PMC4858744, “Bifunctional CYP81AA proteins catalyse identical hydroxylations but alternative regioselective phenol couplings in plant xanthone biosynthesis” (Nature Communications, 2016).

For orientation: Km means the concentration of substrate that gives half-maximal velocity.

In this series the test system is T1, NC(=O)C1=CN([C@@H]2O[C@H](COP(=O)(O)OP(=O)(O)OC[C@H]3O[C@@H](n4cnc5c(N)ncnc54)[C@H](OP(=O)(O)O)[C@@H]3O)[C@@H](O)[C@H]2O)C=CC1.
T1 construct: full-length, 712 residues, pESC-URA MCS2, yeast (S. cerevisiae INVSc1) microsomes
Description: cytochrome c reduction, yeast microsomes. Type of series: biochemical, Hypericum calycinum. The note with it: electron acceptor cytochrome c.

Chain of HcCPR2 (Hypericum calycinum) (chain, as listed by the source): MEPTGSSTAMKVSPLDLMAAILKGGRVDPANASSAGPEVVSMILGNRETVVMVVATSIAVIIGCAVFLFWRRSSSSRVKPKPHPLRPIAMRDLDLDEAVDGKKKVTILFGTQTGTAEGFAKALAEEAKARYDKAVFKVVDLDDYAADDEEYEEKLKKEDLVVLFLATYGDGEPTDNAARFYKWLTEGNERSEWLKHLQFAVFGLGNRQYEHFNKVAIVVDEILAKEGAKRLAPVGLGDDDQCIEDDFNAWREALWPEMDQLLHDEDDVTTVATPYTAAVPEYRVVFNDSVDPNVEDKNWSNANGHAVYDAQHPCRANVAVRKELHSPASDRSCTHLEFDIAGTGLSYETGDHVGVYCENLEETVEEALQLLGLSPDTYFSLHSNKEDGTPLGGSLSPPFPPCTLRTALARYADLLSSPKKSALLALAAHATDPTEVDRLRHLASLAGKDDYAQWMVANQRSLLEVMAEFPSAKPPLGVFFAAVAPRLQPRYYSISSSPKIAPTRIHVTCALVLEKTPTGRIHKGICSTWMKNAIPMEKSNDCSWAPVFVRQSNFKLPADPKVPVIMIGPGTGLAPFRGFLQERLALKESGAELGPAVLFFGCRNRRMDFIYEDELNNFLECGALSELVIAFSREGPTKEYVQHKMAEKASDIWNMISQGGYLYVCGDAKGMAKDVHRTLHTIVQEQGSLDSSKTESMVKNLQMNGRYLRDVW

Turning to HcCPR2 (Hypericum calycinum), the Km was determined as 43.9 ± 6.5 µM.
